Test results: patent US20240279278A1, “NMU RECEPTOR 2 AGONISTS” (Boehringer Ingelheim International GmbH, priority 2023, published 2024)
Starred links: 1 amine or outer side, 2 acyl side, 3 side chain; linkers in the order of their positions; H or OH if unused. Non-standard residues stand in square brackets, D forms with d. *: point of attachment. Pipz(1-CH2CO,4-CH2CH2NH) = O=C(CN1CCN(CCN[*:1])CC1)[*:2]; C18 diacid = O=C(O)CCCCCCCCCCCCCCCCC(=O)*; γGlu = O=C(O)[C@H](CCC(=O)[*:2])N[*:1]; 2Pal = N[C@@H](Cc1ccccn1)C(=O)O; 3Pal = N[C@@H](Cc1cccnc1)C(=O)O; NMeL = CN[C@@H](CC(C)C)C(=O)O; Nle = CCCC[C@H](N)C(=O)O; Sar = CNCC(=O)O

T1: human neuromedin U receptor 1 (human, UniProt Q9HB89 24-426)
T1 sequence (looked up): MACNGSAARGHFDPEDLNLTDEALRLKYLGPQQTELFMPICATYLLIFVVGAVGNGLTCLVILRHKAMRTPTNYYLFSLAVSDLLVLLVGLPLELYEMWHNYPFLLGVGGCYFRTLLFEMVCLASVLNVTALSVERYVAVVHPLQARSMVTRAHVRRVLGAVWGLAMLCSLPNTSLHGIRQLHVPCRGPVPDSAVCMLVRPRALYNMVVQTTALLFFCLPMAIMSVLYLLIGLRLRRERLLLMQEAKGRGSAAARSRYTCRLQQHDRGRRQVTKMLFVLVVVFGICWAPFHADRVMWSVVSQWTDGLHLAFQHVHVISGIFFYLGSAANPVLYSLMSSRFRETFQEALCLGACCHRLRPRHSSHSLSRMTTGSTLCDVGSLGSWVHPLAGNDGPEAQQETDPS


These binders were tested against T1, human neuromedin U receptor 1 (assay: cell-based or functional assay).

Binder | EC50 (hNMUR1) buffer
{C18 diacid}-[γGlu][γGlu][γGlu][Sar][Sar][Sar][Sar][Sar][Sar][Sar][Sar][Sar][Sar][Sar][Sar][Sar][Sar][Sar][Pipz(1-CH2CO,4-CH2CH2NH)]YF[NMeL][Nle][2Pal]PRG-NH2 (SMILES CCCC[C@H](NC(=O)[C@H](CC(C)C)N(C)C(=O)[C@H](Cc1ccccc1)NC(=O)[C@H](Cc1ccc(O)cc1)NC(=O)CN1CCN(CCNC(=O)CN(C)C(=O)CN(C)C(=O)CN(C)C(=O)CN(C)C(=O)CN(C)C(=O)CN(C)C(=O)CN(C)C(=O)CN(C)C(=O)CN(C)C(=O)CN(C)C(=O)CN(C)C(=O)CN(C)C(=O)CN(C)C(=O)CN(C)C(=O)CN(C)C(=O)CC[C@H](NC(=O)CC[C@H](NC(=O)CC[C@H](NC(=O)CCCCCCCCCCCCCCCCC(=O)O)C(=O)O)C(=O)O)C(=O)O)CC1)C(=O)N[C@@H](Cc1ccccn1)C(=O)N1CCC[C@H]1C(=O)N[C@@H](CCCNC(=N)N)C(=O)NCC(N)=O) [C18DA-gGlu3-Sar15-AEPipAc-Tyr-Phe-NMeLeu-Nle-2Pal-Pro-Arg-Gly-NH2] | > 1 µM
EEEXXXXXXXXXXXXXXXXYFLXKPRG (HELM PEPTIDE1{[O=C(O)CCCCCCCCCCCCCCCCCCC(=O)[*:2]].[gGlu].[gGlu].[gGlu].[Sar].[Sar].[Sar].[Sar].[Sar].[Sar].[Sar].[Sar].[Sar].[Sar].[Sar].[Sar].[Sar].[Sar].[Sar].[O=C(CN1CCN(CCN[*:1])CC1)[*:2]].Y.F.[meL].[Nle].K.P.R.G.[am]}$$$$V2.0; SMILES CCCC[C@H](NC(=O)[C@H](CC(C)C)N(C)C(=O)[C@H](Cc1ccccc1)NC(=O)[C@H](Cc1ccc(O)cc1)NC(=O)CN1CCN(CCNC(=O)CN(C)C(=O)CN(C)C(=O)CN(C)C(=O)CN(C)C(=O)CN(C)C(=O)CN(C)C(=O)CN(C)C(=O)CN(C)C(=O)CN(C)C(=O)CN(C)C(=O)CN(C)C(=O)CN(C)C(=O)CN(C)C(=O)CN(C)C(=O)CN(C)C(=O)CC[C@H](NC(=O)CC[C@H](NC(=O)CC[C@H](NC(=O)CCCCCCCCCCCCCCCCCCC(=O)O)C(=O)O)C(=O)O)C(=O)O)CC1)C(=O)N[C@@H](CCCCN)C(=O)N1CCC[C@H]1C(=O)N[C@@H](CCCNC(=N)N)C(=O)NCC(N)=O) [C20DA-gGlu3-Sar15-AEPipAc-Tyr-Phe-NMeLeu-Nle-Lys-Pro-Arg-Gly-NH2] | 1.3 µM
EEEXXXXXXXXXXXXXXXXYFLXKARG (HELM PEPTIDE1{[O=C(O)CCCCCCCCCCCCCCCCCCC(=O)[*:2]].[gGlu].[gGlu].[gGlu].[Sar].[Sar].[Sar].[Sar].[Sar].[Sar].[Sar].[Sar].[Sar].[Sar].[Sar].[Sar].[Sar].[Sar].[Sar].[O=C(CN1CCN(CCN[*:1])CC1)[*:2]].Y.F.[meL].[Nle].K.[meA].R.G.[am]}$$$$V2.0; SMILES CCCC[C@H](NC(=O)[C@H](CC(C)C)N(C)C(=O)[C@H](Cc1ccccc1)NC(=O)[C@H](Cc1ccc(O)cc1)NC(=O)CN1CCN(CCNC(=O)CN(C)C(=O)CN(C)C(=O)CN(C)C(=O)CN(C)C(=O)CN(C)C(=O)CN(C)C(=O)CN(C)C(=O)CN(C)C(=O)CN(C)C(=O)CN(C)C(=O)CN(C)C(=O)CN(C)C(=O)CN(C)C(=O)CN(C)C(=O)CN(C)C(=O)CC[C@H](NC(=O)CC[C@H](NC(=O)CC[C@H](NC(=O)CCCCCCCCCCCCCCCCCCC(=O)O)C(=O)O)C(=O)O)C(=O)O)CC1)C(=O)N[C@@H](CCCCN)C(=O)N(C)[C@@H](C)C(=O)N[C@@H](CCCNC(=N)N)C(=O)NCC(N)=O) [C20DA-gGlu3-Sar15-AEPipAc-Tyr-Phe-NMeLeu-Nle-Lys-NMeAla-Arg-Gly-NH2] | > 1 µM
{C18 diacid}-[γGlu][γGlu][γGlu][Sar][Sar][Sar][Sar][Sar][Sar][Sar][Sar][Sar][Sar][Sar][Sar][Sar][Sar][Sar][Pipz(1-CH2CO,4-CH2CH2NH)]YF[NMeL][Nle][3Pal]PRG-NH2 (SMILES CCCC[C@H](NC(=O)[C@H](CC(C)C)N(C)C(=O)[C@H](Cc1ccccc1)NC(=O)[C@H](Cc1ccc(O)cc1)NC(=O)CN1CCN(CCNC(=O)CN(C)C(=O)CN(C)C(=O)CN(C)C(=O)CN(C)C(=O)CN(C)C(=O)CN(C)C(=O)CN(C)C(=O)CN(C)C(=O)CN(C)C(=O)CN(C)C(=O)CN(C)C(=O)CN(C)C(=O)CN(C)C(=O)CN(C)C(=O)CN(C)C(=O)CC[C@H](NC(=O)CC[C@H](NC(=O)CC[C@H](NC(=O)CCCCCCCCCCCCCCCCC(=O)O)C(=O)O)C(=O)O)C(=O)O)CC1)C(=O)N[C@@H](Cc1cccnc1)C(=O)N1CCC[C@H]1C(=O)N[C@@H](CCCNC(=N)N)C(=O)NCC(N)=O) [C18DA-gGlu3-Sar15-AEPipAc-Tyr-Phe-NMeLeu-Nle-3Pal-Pro-Arg-Gly-NH2] | > 1 µM
EEEXXXXXXXXXXXXXXXXYFLXRPRG (HELM PEPTIDE1{[O=C(O)CCCCCCCCCCCCCCCCC(=O)[*:2]].[gGlu].[gGlu].[gGlu].[Sar].[Sar].[Sar].[Sar].[Sar].[Sar].[Sar].[Sar].[Sar].[Sar].[Sar].[Sar].[Sar].[Sar].[Sar].[O=C(CN1CCN(CCN[*:1])CC1)[*:2]].Y.F.[meL].[Nle].[meR].P.R.G.[am]}$$$$V2.0; SMILES CCCC[C@H](NC(=O)[C@H](CC(C)C)N(C)C(=O)[C@H](Cc1ccccc1)NC(=O)[C@H](Cc1ccc(O)cc1)NC(=O)CN1CCN(CCNC(=O)CN(C)C(=O)CN(C)C(=O)CN(C)C(=O)CN(C)C(=O)CN(C)C(=O)CN(C)C(=O)CN(C)C(=O)CN(C)C(=O)CN(C)C(=O)CN(C)C(=O)CN(C)C(=O)CN(C)C(=O)CN(C)C(=O)CN(C)C(=O)CN(C)C(=O)CC[C@H](NC(=O)CC[C@H](NC(=O)CC[C@H](NC(=O)CCCCCCCCCCCCCCCCC(=O)O)C(=O)O)C(=O)O)C(=O)O)CC1)C(=O)N(C)[C@@H](CCCNC(=N)N)C(=O)N1CCC[C@H]1C(=O)N[C@@H](CCCNC(=N)N)C(=O)NCC(N)=O) [C18DA-gGlu3-Sar15-AEPipAc-Tyr-Phe-NMeLeu-Nle-NMeArg-Pro-Arg-Gly-NH2] | 0.2 µM
EEEXXXXXXXXXXXXXXXXYFLXRARG (HELM PEPTIDE1{[O=C(O)CCCCCCCCCCCCCCCCC(=O)[*:2]].[gGlu].[gGlu].[gGlu].[Sar].[Sar].[Sar].[Sar].[Sar].[Sar].[Sar].[Sar].[Sar].[Sar].[Sar].[Sar].[Sar].[Sar].[Sar].[O=C(CN1CCN(CCN[*:1])CC1)[*:2]].Y.F.[meL].[Nle].[meR].[meA].R.G.[am]}$$$$V2.0; SMILES CCCC[C@H](NC(=O)[C@H](CC(C)C)N(C)C(=O)[C@H](Cc1ccccc1)NC(=O)[C@H](Cc1ccc(O)cc1)NC(=O)CN1CCN(CCNC(=O)CN(C)C(=O)CN(C)C(=O)CN(C)C(=O)CN(C)C(=O)CN(C)C(=O)CN(C)C(=O)CN(C)C(=O)CN(C)C(=O)CN(C)C(=O)CN(C)C(=O)CN(C)C(=O)CN(C)C(=O)CN(C)C(=O)CN(C)C(=O)CN(C)C(=O)CC[C@H](NC(=O)CC[C@H](NC(=O)CC[C@H](NC(=O)CCCCCCCCCCCCCCCCC(=O)O)C(=O)O)C(=O)O)C(=O)O)CC1)C(=O)N(C)[C@@H](CCCNC(=N)N)C(=O)N(C)[C@@H](C)C(=O)N[C@@H](CCCNC(=N)N)C(=O)NCC(N)=O) [C18DA-gGlu3-Sar15-AEPipAc-Tyr-Phe-NMeLeu-Nle-NMeArg-NMeAla-Arg-Gly-NH2] | 1.3 µM
EEEXXXXXXXXXXXXXXXXYFLXHPRG (HELM PEPTIDE1{[O=C(O)CCCCCCCCCCCCCCCCC(=O)[*:2]].[gGlu].[gGlu].[gGlu].[Sar].[Sar].[Sar].[Sar].[Sar].[Sar].[Sar].[Sar].[Sar].[Sar].[Sar].[Sar].[Sar].[Sar].[Sar].[O=C(CN1CCN(CCN[*:1])CC1)[*:2]].Y.F.[meL].[Nle].H.P.R.G.[am]}$$$$V2.0; SMILES CCCC[C@H](NC(=O)[C@H](CC(C)C)N(C)C(=O)[C@H](Cc1ccccc1)NC(=O)[C@H](Cc1ccc(O)cc1)NC(=O)CN1CCN(CCNC(=O)CN(C)C(=O)CN(C)C(=O)CN(C)C(=O)CN(C)C(=O)CN(C)C(=O)CN(C)C(=O)CN(C)C(=O)CN(C)C(=O)CN(C)C(=O)CN(C)C(=O)CN(C)C(=O)CN(C)C(=O)CN(C)C(=O)CN(C)C(=O)CN(C)C(=O)CC[C@H](NC(=O)CC[C@H](NC(=O)CC[C@H](NC(=O)CCCCCCCCCCCCCCCCC(=O)O)C(=O)O)C(=O)O)C(=O)O)CC1)C(=O)N[C@@H](Cc1c[nH]cn1)C(=O)N1CCC[C@H]1C(=O)N[C@@H](CCCNC(=N)N)C(=O)NCC(N)=O) [C18DA-gGlu3-Sar15-AEPipAc-Tyr-Phe-NMeLeu-Nle-His-Pro-Arg-Gly-NH2] | > 1 µM
EEEXXXXXXXXXXXXXXXXYFLXHARG (HELM PEPTIDE1{[O=C(O)CCCCCCCCCCCCCCCCC(=O)[*:2]].[gGlu].[gGlu].[gGlu].[Sar].[Sar].[Sar].[Sar].[Sar].[Sar].[Sar].[Sar].[Sar].[Sar].[Sar].[Sar].[Sar].[Sar].[Sar].[O=C(CN1CCN(CCN[*:1])CC1)[*:2]].Y.F.[meL].[Nle].H.[meA].R.G.[am]}$$$$V2.0; SMILES CCCC[C@H](NC(=O)[C@H](CC(C)C)N(C)C(=O)[C@H](Cc1ccccc1)NC(=O)[C@H](Cc1ccc(O)cc1)NC(=O)CN1CCN(CCNC(=O)CN(C)C(=O)CN(C)C(=O)CN(C)C(=O)CN(C)C(=O)CN(C)C(=O)CN(C)C(=O)CN(C)C(=O)CN(C)C(=O)CN(C)C(=O)CN(C)C(=O)CN(C)C(=O)CN(C)C(=O)CN(C)C(=O)CN(C)C(=O)CN(C)C(=O)CC[C@H](NC(=O)CC[C@H](NC(=O)CC[C@H](NC(=O)CCCCCCCCCCCCCCCCC(=O)O)C(=O)O)C(=O)O)C(=O)O)CC1)C(=O)N[C@@H](Cc1c[nH]cn1)C(=O)N(C)[C@@H](C)C(=O)N[C@@H](CCCNC(=N)N)C(=O)NCC(N)=O) [C18DA-gGlu3-Sar15-AEPipAc-Tyr-Phe-NMeLeu-Nle-His-NMeAla-Arg-Gly-NH2] | > 1 µM
